Assay results: PMC2823488

What was measured:
Assay in all cases: EMSA
TLS = TLS (UniProt P35637 1-526)
GST-TLS 211-526 = GST-TLS 211-526 (UniProt P35637 211-526)
GST-TLS 373-526 = GST-TLS 373-526 (UniProt P35637 373-526)
Chain of GST-TLS 373-526 (P35637 373-526): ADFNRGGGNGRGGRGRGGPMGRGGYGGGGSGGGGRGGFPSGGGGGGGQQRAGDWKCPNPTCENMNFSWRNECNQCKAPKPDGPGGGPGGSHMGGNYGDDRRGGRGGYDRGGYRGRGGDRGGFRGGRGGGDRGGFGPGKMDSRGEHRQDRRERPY

Chain of TLS (P35637 whole entry): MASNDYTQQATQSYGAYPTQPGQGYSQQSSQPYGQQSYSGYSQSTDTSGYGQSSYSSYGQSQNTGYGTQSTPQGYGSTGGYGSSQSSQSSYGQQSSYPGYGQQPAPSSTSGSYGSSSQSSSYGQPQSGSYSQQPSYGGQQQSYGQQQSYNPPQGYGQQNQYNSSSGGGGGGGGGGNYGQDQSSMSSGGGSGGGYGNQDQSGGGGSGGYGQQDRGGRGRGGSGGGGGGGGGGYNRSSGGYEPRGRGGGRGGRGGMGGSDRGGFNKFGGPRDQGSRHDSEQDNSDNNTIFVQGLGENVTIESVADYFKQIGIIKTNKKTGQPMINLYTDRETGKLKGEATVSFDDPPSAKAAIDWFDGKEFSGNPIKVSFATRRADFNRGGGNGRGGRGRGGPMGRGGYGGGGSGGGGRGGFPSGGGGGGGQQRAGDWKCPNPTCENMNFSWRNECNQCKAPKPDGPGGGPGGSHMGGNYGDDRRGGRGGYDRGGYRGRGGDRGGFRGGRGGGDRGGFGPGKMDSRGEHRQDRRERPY
Chain of GST-TLS 211-526 (P35637 211-526): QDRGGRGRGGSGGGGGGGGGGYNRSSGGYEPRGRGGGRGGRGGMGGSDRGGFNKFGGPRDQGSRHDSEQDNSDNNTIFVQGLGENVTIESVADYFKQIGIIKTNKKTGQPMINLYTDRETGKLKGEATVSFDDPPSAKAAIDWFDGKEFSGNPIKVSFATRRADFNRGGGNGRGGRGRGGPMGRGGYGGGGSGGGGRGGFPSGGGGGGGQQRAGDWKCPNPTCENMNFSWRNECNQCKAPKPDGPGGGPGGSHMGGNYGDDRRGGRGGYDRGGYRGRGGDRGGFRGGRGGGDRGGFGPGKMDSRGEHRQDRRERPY

UCCAGCAGCAGCCCAAGAUGGUGGC (ssRNA) [-764a]
binding result (TLS): no binding

UGGCAUCGUGAUGGACUCCGGUGAC (ssRNA) [β-actin RNA]
binding result (TLS): no binding

B1: RNA:DNA hybrid of -454s (DNA:RNA)
RNA: UCUGCCGGCUUGGAUAUGGGGUGUC
DNA: GACACCCCATATCCAAGCCGGCAGA
binding result (TLS): no binding

UCUGCCGGCUUGGAUAUGGGGUGUC (ssRNA) [-454s (RNA in Fig. 4g)]
binding result (TLS): binds

UUGUAUUUUGAGCUAGUUUGGUGAC (ssRNA) [GGUG-oligonucleotide]
binding result (GST-TLS 211-526): binds
binding result (TLS): binds
binding result (GST-TLS 373-526): binds

GACACCCCATATCCAAGCCGGCAGA (ssDNA) [DNA (complement of -454s)]
binding result (TLS): no binding

CCCGGGAUUUAGGGGGUGAGGUGGA (ssRNA) [-341a]
binding result (TLS): binds
